In article PMC6219635:

Columns and labels:
Test in all cases: SDS-PAGE under non-reducing conditions
[1] = target: FG-IncD M (FLAG-tagged TM region of IncD) (Chlamydia trachomatis)
[2] = target: FG-IncD ΔN (38-146) (Chlamydia trachomatis)
[3] = target: FG-IncD ΔC (aa 1-91) (Chlamydia trachomatis)

Substance: FG-IncD M (FLAG-tagged TM region of IncD) (domain or fragment)
- stoichiometry N [1]: 2

Substance: FG-IncD ΔN (38-146) (domain or fragment)
- stoichiometry N [2]: 2

Substance: FG-IncD ΔC (aa 1-91) (domain or fragment)
- stoichiometry N [3]: 2
